# Measurements taken from PMC6433294, “Differential thermal stability, conformational stability and unfolding behavior of Eis proteins from Mycobacterium smegmatis and Mycobacterium tuberculosis” (PLoS ONE, 2019).
# B1: M. smegmatis Eis (MSMEG_3513) protein (enzyme, UniProt A0QY29 1-402, looked up)
# chain: MITPRTLHTITDDDWTRIALLARFAFGDIEPEQTQAAWRSMVPEDATVVVPDETDDAFVGQSLYLDMQLTVPGGEVLPVAGISFVAVAPTHRRRGVLRAMYTELHDRIARAGYPLAVLTASEGGIYGRFGYGVATIEQHVSVDRRLAQFHPAAPDPGGVRMLVPADHRDGLADIYDRWRRRTPGGLVRPDALWDDLLADRPESRRGGGELFAFGHQDGYALYRVDRGPDGRRSAHVVELTAVTADAHAALWRALLGLDLIDRVSIGTHPHDPLPYLLTDPRQAQVTASADDLWIRIMNVPAALEARRYQADLDVVLDVADGFRSDGGRFALQISGGRARCTTTDAPADIEIDLDVLGGLYLGAHRVDGFAAANRLRSKDSELLQQFGAAFAGDMPAELGYGF
# notes: also called MsEis; Enhanced Intracellular Survival protein from M. smegmatis
# B2: M. tuberculosis Eis (Rv2416c, Enhanced Intracellular Survival protein) (enzyme)
# chain: MTVTLCSPTEDDWPGMFLLAAASFTDFIGPESATAWRTLVPTDGAVVVRDGAGPGSEVVGMALYMDLRLTVPGEVVLPTAGLSFVAVAPTHRRRGLLRAMCAELHRRIADSGYPVAALHASEGGIYGRFGYGPATTLHELTVDRRFARFHADAPGGGLGGSSVRLVRPTEHRGEFEAIYERWRQQVPGGLLRPQVLWDELLAECKAAPGGDRESFALLHPDGYALYRVDRTDLKLARVSELRAVTADAHCALWRALIGLDSMERISIITHPQDPLPHLLTDTRLARTTWRQDGLWLRIMNVPAALEARGYAHEVGEFSTVLEVSDGGRFALKIGDGRARCTPTDAAAEIEMDRDVLGSLYLGAHRASTLAAANRLRTKDSQLLRRLDAAFASDVPVQTAFEF
# notes: also called RvEis; not shown: His tag, N-terminal, kept
# Legend:
# [1] = system: NC[C@H]1O[C@H](O[C@H]2[C@H](O)[C@@H](O[C@H]3O[C@H](CO)[C@@H](O)[C@H](N)[C@H]3O)[C@H](N)C[C@@H]2N)[C@H](O)[C@@H](O)[C@@H]1O; experiment: purified protein
# [2] = target: the molecule itself; experiment: SEC; untreated protein, 100 ug, Superose 6 Increase 10/300 GL, 10 mM Tris-Cl pH 8.0, 150 mM NaCl, 1 mM EDTA, 0.5 mM beta-ME, 25°C, 0.5 ml/min; calibrated with molecular weight markers
# [3] = target: the molecule itself; experiment: SDS-PAGE of unboiled sample; 10 ug unboiled protein on 8% SDS-PAGE, loading dye with 1% SDS, 0.125 M Tris pH 6.8, 40% glycerol; Coomassie stain
# [4] = fixed acetyl-CoA (500 μM in the standard assay), 2 mM DTNB, 0.5 μM enzyme, 20 mM phosphate pH 8.0, 25°C
molecule,measurement,setting,value
MsEis (Mycolicibacterium smegmatis MC2 155),Km,[1]; [4],21 ± 0.1 µM
same,Vmax,[1]; [4],4.8 µM/min
same,kcat,[1]; [4],0.027 ± 0.005 s⁻¹
same,kcat/Km,[1]; [4],1270 ± 22 M⁻¹ s⁻¹
RvEis (Mycobacterium tuberculosis H37Rv),Km,"[1]; pH 8.0, 25.0 °C",11 ± 1.6 µM
same,Vmax,"[1]; pH 8.0, 25.0 °C",4 µM/min
same,kcat/Km,"[1]; pH 8.0, 25.0 °C",2140 M⁻¹ s⁻¹
B1,stoichiometry N,[2],6
B2,stoichiometry N,[2],6
same,stoichiometry N,[3],3
